Experimental data published in the supplement of paper PMC7877785.
± gives the uncertainty stated by the source.

Experiment: self-splicing fitness, log relative to wild type (ln ratio); higher = more splicing; Tetrahymena group I intron in knt gene, E. coli kanamycin selection, DiMSum; sequences stand for … in CUCUCU…GGAGGGAAAAGUUAUCAGGCAUGCACCUGGUAGCUAGUCUUUAAACCAAUAGAUUGCAUCGGUUUAAAAGGCAAGACCGUCAAAUUGCGGGAAAGGGGUCAACAGCCGUUCAGUACCAAGUCUCAGGGGAAACUUUGAGAUGGCCUUGCAAAGGGUAUGGUAAUAAGCUGACGGACAUGGUCCUAACCACGCAGCCAAGUCCUAAGUCAACAGAUCUUCUGUUGAUAUGGAUGCAGUUCACAGACUAAAUGUCGGUCGGGGAAGAUGUAUUCUUCUCAUAAGAUAUAGUCGGACCUCUCCUUAAUGGGAGCUAGCGGAUGAAGUGAUGCAACACUGGAGCCGCUGGGAACUAAUUUGUAUGCGAAAGUAUAUUGAUUAGUUUUGGAGUACUCGUGGUCG
Procedure, shortened: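 The eight P1ex-region nucleotides of an intron in the knt kanamycin-resistance gene on pET-22b(+) were all randomised and the library put into E. coli BL21(DE3). Six replicate transformations were grown overnight at 37°C or 30°C on LB agar with or without 25 μg/mL kanamycin, together with 100 μg/mL carbenicillin, 50 μM IPTG and 0.2% rhamnose. Colonies were pooled and amplicon-sequenced on an Illumina HiSeq 2500. Fitness from DiMSum is the error-weighted combination of wild-type-normalised replicate fold changes, kanamycin over none.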

| Sequence | self-splicing fitness (ln) (30 °C) | self-splicing fitness (ln) (37 °C) |
| --- | --- | --- |
| CAUGAGCAAUAUUACGGCAU | -3.35 ± 0.34 | -2.9 ± 0.47 |
| CAUGAGCAAUAUUACGGGAC | -2.99 ± 0.18 | -1.95 ± 0.24 |
| CAUGAGCAAUAUUACGGGCG | -0.135 ± 0.075 | 0.178 ± 0.092 |
| CAUGAGCAAUAUUACGGUAG | -2.01 ± 0.1 | -0.949 ± 0.11 |
| CAUGAGCAAUAUUACGGUCC | -3.81 ± 0.37 | – |
| CAUGAGCAAUAUUACGGUGC | -3.35 ± 0.28 | -3 ± 0.26 |
| CAUGAGCAAUAUUACGGUGU | -4.27 ± 0.28 | -2.54 ± 0.23 |
| CAUGAGCAAUAUUACGGUUG | -1.97 ± 0.094 | -0.986 ± 0.12 |
| CAUGAGCAAUAUUACGUAGA | -4.22 ± 0.27 | -2.77 ± 0.21 |
| CAUGAGCAAUAUUACGUAGC | -1.64 ± 0.17 | -1.96 ± 0.26 |
| CAUGAGCAAUAUUACGUCAG | -1.35 ± 0.095 | -1.13 ± 0.12 |
| CAUGAGCAAUAUUACGUGAC | -3.75 ± 0.25 | – |
| CAUGAGCAAUAUUACGUGCG | -1.75 ± 0.077 | -0.908 ± 0.083 |
| CAUGAGCAAUAUUACGUUGA | -2.92 ± 0.18 | -3.4 ± 0.29 |
| CAUUAGCAAUAUUACGAAUG | -2.67 ± 0.19 | -2.28 ± 0.3 |
| CAUUAGCAAUAUUACGACAC | -2.3 ± 0.2 | -1.89 ± 0.23 |
| CAUUAGCAAUAUUACGACAU | -3.364 ± 0.024 | -1.97 ± 0.036 |
| CAUUAGCAAUAUUACGACUA | -1.75 ± 0.49 | – |
| CAUUAGCAAUAUUACGACUU | -1.99 ± 0.16 | -1.71 ± 0.18 |
| CAUUAGCAAUAUUACGAGAG | -2.5 ± 0.19 | -2.63 ± 0.21 |
| CAUUAGCAAUAUUACGAUAC | -3.07 ± 0.47 | -2.23 ± 0.43 |
| CAUUAGCAAUAUUACGAUUU | -2.32 ± 0.13 | -1.56 ± 0.15 |
| CAUUAGCAAUAUUACGCAGA | – | -1.78 ± 0.31 |
| CAUUAGCAAUAUUACGCGGG | -1.95 ± 0.3 | 0.421 ± 0.2 |
| CAUUAGCAAUAUUACGCUCC | – | -1.18 ± 0.38 |

| Sequence | self-splicing fitness (ln) (30 °C) | self-splicing fitness (ln) (37 °C) |
| --- | --- | --- |
| CAUUAGCAAUAUUACGGCCA | -2.3 ± 0.28 | – |
| CAUUAGCAAUAUUACGGGAU | -3.2 ± 0.19 | -2.92 ± 0.23 |
| CAUUAGCAAUAUUACGGGCA | -2.73 ± 0.27 | -1.1 ± 0.16 |
| CAUUAGCAAUAUUACGGUGA | -2.79 ± 0.19 | -1.92 ± 0.13 |
| CAUUAGCAAUAUUACGUCAG | -0.381 ± 0.091 | -0.0898 ± 0.098 |
| CAUUAGCAAUAUUACGUGAA | -2.94 ± 0.21 | -3.18 ± 0.29 |
| CAUUAGCAAUAUUACGUGGU | -4.46 ± 0.21 | -2.6 ± 0.16 |
| CCAAAGCAAUAUUACGAACC | -3.78 ± 0.47 | -1.5 ± 0.34 |
| CCAAAGCAAUAUUACGAGCA | -3.64 ± 0.23 | -3.23 ± 0.26 |
| CCAAAGCAAUAUUACGAGUA | -3.15 ± 0.23 | -2.6 ± 0.23 |
| CCAAAGCAAUAUUACGCAGC | -3.4 ± 0.26 | -2.49 ± 0.33 |
| CCAAAGCAAUAUUACGCAUG | -1.22 ± 0.063 | -0.772 ± 0.084 |
| CCAAAGCAAUAUUACGCCAG | -1.3 ± 0.1 | -0.0837 ± 0.13 |
| CCAAAGCAAUAUUACGCGCA | -3.48 ± 0.28 | -3.13 ± 0.24 |
| CCAAAGCAAUAUUACGGCGC | -3.65 ± 0.34 | -2.49 ± 0.29 |
| CCAAAGCAAUAUUACGGUUC | -2.91 ± 0.12 | -2.34 ± 0.2 |
| CCAAAGCAAUAUUACGUCGC | -3.49 ± 0.18 | -2.29 ± 0.18 |
| CCAAAGCAAUAUUACGUCGU | -3.82 ± 0.19 | -2.75 ± 0.23 |
| CCAAAGCAAUAUUACGUCUG | -0.9 ± 0.054 | -0.302 ± 0.066 |
| CCAAAGCAAUAUUACGUGCC | -3.77 ± 0.35 | -2.31 ± 0.35 |
| CCAAAGCAAUAUUACGUGUC | -3.56 ± 0.21 | -3.6 ± 0.29 |
| CCAAAGCAAUAUUACGUUGG | -4.54 ± 0.27 | -3.32 ± 0.29 |
| CCAAAGCAAUAUUACGUUUA | -3.26 ± 0.17 | -2.63 ± 0.17 |
| CCAAAGCAAUAUUACGUUUC | -4.24 ± 0.25 | -2.78 ± 0.24 |
| CCACAGCAAUAUUACGAAAU | -4.25 ± 0.24 | -2.02 ± 0.17 |

| Sequence | self-splicing fitness (ln) (30 °C) | self-splicing fitness (ln) (37 °C) |
| --- | --- | --- |
| CCACAGCAAUAUUACGACAC | -3.68 ± 0.29 | -1.5 ± 0.18 |
| CCACAGCAAUAUUACGACGC | -3.76 ± 0.33 | -2.08 ± 0.35 |
| CCACAGCAAUAUUACGAGCG | -0.707 ± 0.048 | 0.184 ± 0.065 |
| CCACAGCAAUAUUACGCGAU | -3.36 ± 0.17 | -3.66 ± 0.21 |
| CCACAGCAAUAUUACGCGUA | -2.81 ± 0.18 | -2.41 ± 0.2 |
| CCACAGCAAUAUUACGCGUU | -3.65 ± 0.092 | -2.91 ± 0.13 |
| CCACAGCAAUAUUACGGCGG | -3.15 ± 0.14 | -1.08 ± 0.12 |
| CCACAGCAAUAUUACGGGUC | -3.86 ± 0.18 | -2.89 ± 0.17 |
| CCACAGCAAUAUUACGGGUG | -2.04 ± 0.05 | -0.716 ± 0.059 |
| CCACAGCAAUAUUACGUAGC | -4.48 ± 0.29 | -2.7 ± 0.26 |
| CCACAGCAAUAUUACGUAUA | -4.05 ± 0.24 | -2.84 ± 0.23 |
| CCACAGCAAUAUUACGUCUU | -3.88 ± 0.14 | -2.85 ± 0.12 |
| CCACAGCAAUAUUACGUGCA | -4.24 ± 0.24 | -2.5 ± 0.12 |
| CCACAGCAAUAUUACGUGGG | -3.56 ± 0.14 | -3.13 ± 0.18 |
| CCACAGCAAUAUUACGUUAC | -3.16 ± 0.21 | -2.17 ± 0.17 |
| CCAGAGCAAUAUUACGAACA | -2.39 ± 0.47 | -1.48 ± 0.49 |
| CCAGAGCAAUAUUACGACAU | -3.776 ± 0.029 | -3.03 ± 0.043 |
| CCAGAGCAAUAUUACGACUC | -1.93 ± 0.32 | -1.12 ± 0.43 |
| CCAGAGCAAUAUUACGAGGG | -4.31 ± 0.39 | -2.39 ± 0.41 |
| CCAGAGCAAUAUUACGAUGU | -3.69 ± 0.23 | -1.83 ± 0.17 |
| CCAGAGCAAUAUUACGAUUU | -3.77 ± 0.35 | -3.59 ± 0.39 |
| CCAGAGCAAUAUUACGCACU | -2.9 ± 0.25 | – |
| CCAGAGCAAUAUUACGCAUC | -2.56 ± 0.28 | -1.99 ± 0.31 |
| CCAGAGCAAUAUUACGCCCU | -2.65 ± 0.48 | -2.07 ± 0.36 |
| CCAGAGCAAUAUUACGCCUG | – | -2.66 ± 0.36 |

| Sequence | self-splicing fitness (ln) (30 °C) | self-splicing fitness (ln) (37 °C) |
| --- | --- | --- |
| CCAGAGCAAUAUUACGCGCA | -3.16 ± 0.25 | – |
| CCAGAGCAAUAUUACGCGGA | -3.2 ± 0.34 | -2.49 ± 0.24 |
| CCAGAGCAAUAUUACGCGGU | -3.94 ± 0.23 | -3.14 ± 0.33 |
| CCAGAGCAAUAUUACGCUCA | -3.24 ± 0.38 | -1.42 ± 0.37 |
| CCAGAGCAAUAUUACGCUCG | -2.32 ± 0.28 | -1.95 ± 0.38 |
| CCAGAGCAAUAUUACGCUUG | -3.27 ± 0.26 | -2.93 ± 0.35 |
| CCAGAGCAAUAUUACGGACU | -3.62 ± 0.48 | -0.487 ± 0.4 |
| CCAGAGCAAUAUUACGGCAG | -1.8 ± 0.088 | -1 ± 0.13 |
| CCAGAGCAAUAUUACGGCCC | -2.44 ± 0.46 | -1.44 ± 0.42 |
| CCAGAGCAAUAUUACGGGAC | -2.81 ± 0.33 | – |
| CCAGAGCAAUAUUACGGGUG | -1.52 ± 0.072 | -0.654 ± 0.096 |
| CCAGAGCAAUAUUACGGUCG | -1.35 ± 0.1 | -0.448 ± 0.12 |
| CCAGAGCAAUAUUACGGUGU | -3.53 ± 0.16 | -2.7 ± 0.2 |
| CCAGAGCAAUAUUACGGUUC | -4.36 ± 0.21 | -2.38 ± 0.18 |
| CCAGAGCAAUAUUACGUGAC | -3.36 ± 0.19 | -3.93 ± 0.46 |
| CCAGAGCAAUAUUACGUGAG | -0.95 ± 0.061 | -0.428 ± 0.074 |
| CCAGAGCAAUAUUACGUGCA | -1.88 ± 0.22 | -2.54 ± 0.4 |
| CCAGAGCAAUAUUACGUUCG | -2.91 ± 0.17 | -1.64 ± 0.17 |
| CCAUAGCAAUAUUACGAAAG | -2.11 ± 0.12 | -0.18 ± 0.12 |
| CCAUAGCAAUAUUACGAACC | -1.85 ± 0.5 | – |
| CCAUAGCAAUAUUACGAAUU | -3.3 ± 0.23 | -2.51 ± 0.39 |
| CCAUAGCAAUAUUACGAGAA | -0.566 ± 0.36 | – |
| CCAUAGCAAUAUUACGAGCA | -3.11 ± 0.2 | -2.11 ± 0.23 |
| CCAUAGCAAUAUUACGCACA | -3.14 ± 0.28 | -1.45 ± 0.27 |
